Biological target: T1, Full-length MukF (E. coli, UniProt P60293 1-440)
T1 sequence (looked up): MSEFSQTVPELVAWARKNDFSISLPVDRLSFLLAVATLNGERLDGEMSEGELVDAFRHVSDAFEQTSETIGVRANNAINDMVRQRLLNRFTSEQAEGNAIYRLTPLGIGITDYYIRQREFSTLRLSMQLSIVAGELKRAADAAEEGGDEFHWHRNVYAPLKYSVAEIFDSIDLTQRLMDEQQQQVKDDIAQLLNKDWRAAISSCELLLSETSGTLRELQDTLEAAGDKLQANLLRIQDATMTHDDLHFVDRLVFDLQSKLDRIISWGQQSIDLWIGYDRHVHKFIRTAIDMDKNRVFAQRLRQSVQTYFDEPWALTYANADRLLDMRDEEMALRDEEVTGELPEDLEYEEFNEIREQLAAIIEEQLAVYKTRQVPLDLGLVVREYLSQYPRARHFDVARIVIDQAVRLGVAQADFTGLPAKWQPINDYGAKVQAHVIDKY
Assay: AUC

B1: MukE-DRER (MukE-D196A/R198A/E199S/R202S) (natural protein, E. coli, UniProt P22524 10-234, looked up)
chain: MPVKLAQALANPLFPALDSALRSGRHIGLDELDNHAFLMDFQEYLEEFYARYNVELIRAPEGFFYLRPRSTTLIPRSVLSELDMMVGKILCYLYLSPERLANEGIFTQQELYDELLTLADEAKLLKLVNNRSTGSDVDRQKLQEKVRSSLNRLRRLGMVWFMGHDSSKFRITESVFRFGADVRAGDAPASAQSRLIRDGEAMPIENHLQLNDETEENQPDSGEEE
stoichiometry N: 2 MukE per MukF

Source: publication PMC3482342 (Journal of molecular biology, 2011)
